Read-outs that look alike come from different tables or passages of the source. One block for each binder: values may come before it. Starred links: 1 amine or outer side, 2 acyl side, 3 side chain; linkers in the order of their positions; H or OH if unused. Positions of bridges follow the written chain, without caps; N, C: chain ends. Non-standard residues stand in square brackets, D forms with d. Primed or numbered codes have the meaning given here. PyrS2(3) = (S)-3-amino-1-((pent-4-en-1-yloxy)carbonyl)pyrrolidine-3-carboxylic acid, stapling residue, C=CCCCOC(=O)N1CC[C@@](N[*:1])(C(=O)[*:2])C1; PyrS2″ = (S)-3-amino-1-((pent-4-en-1-yloxy)carbonyl)pyrrolidine-3-carboxylic acid (stapling residue), C=CCCCOC(=O)N1CC[C@@](N[*:1])(C(=O)[*:2])C1; B5(24) = 2-amino-2-(pent-4-en-1-yl)hept-6-enoic acid, 2,2-bis(4-pentenyl)glycine (stitching residue), C=CCCCC(CCCC=C)(N[*:1])C(=O)[*:2]; B5(4) = 2,2-bis(4-pentenyl)glycine = 2-amino-2-(pent-4-en-1-yl)hept-6-enoic acid (stitching residue), C=CCCCC(CCCC=C)(N[*:1])C(=O)[*:2]; B5(20) = 2-amino-2-(pent-4-en-1-yl)hept-6-enoic acid = bis(4-pentenyl)glycine, stitching residue, C=CCCCC(CCCC=C)(N[*:1])C(=O)[*:2]; TfeGA = (S)-2-amino-3-((carboxymethyl)(2,2,2-trifluoroethyl)amino)propanoic acid, O=C([C@H](CN(CC(=O)[*:3])CC(F)(F)F)N[*:1])[*:2]; PyrS2 = (S)-3-amino-1-((pent-4-en-1-yloxy)carbonyl)pyrrolidine-3-carboxylic acid, C=CCCCOC(=O)N1CC[C@@](N[*:1])(C(=O)[*:2])C1; F2PipNva = (S)-2-amino-5-(4,4-difluoropiperidin-1-yl)pentanoic acid, O=C([C@H](CCCN1CCC(F)(F)CC1)N[*:1])[*:2]; MorphAsn = (S)-2-amino-4-morpholino-4-oxobutanoic acid, O=C(C[C@H](N[*:1])C(=O)[*:2])N1CCOCC1; B5(3) = 2,2-bis(4-pentenyl)glycine (stitching residue), C=CCCCC(CCCC=C)(N[*:1])C(=O)[*:2]; B5″ = 2,2-bis(4-pentenyl)glycine, stitching residue, C=CCCCC(CCCC=C)(N[*:1])C(=O)[*:2]; Phe(3-CF3) = N[C@@H](Cc1cccc(C(F)(F)F)c1)C(=O)O; Phe(F5) = N[C@@H](Cc1c(F)c(F)c(F)c(F)c1F)C(=O)O; Nva(5-morpholino) = N[C@@H](CCCN1CCOCC1)C(=O)O; Phe(3-COOH) = N[C@@H](Cc1cccc(C(=O)O)c1)C(=O)O; 2F3MeF = Cc1cccc(C[C@H](N[*:1])C(=O)[*:2])c1F; Phe(2-Cl) = N[C@@H](Cc1ccccc1Cl)C(=O)O; Bta = N[C@@H](Cc1csc2ccccc12)C(=O)O; Lys(iPr) = CC(C)NCCCC[C@H](N)C(=O)O; αAllylPro = C=CC[C@@]1(C(=O)O)CCCN1; tBuAla = CC(C)(C)C[C@H](N)C(=O)O; 3Thi = N[C@@H](Cc1ccsc1)C(=O)O; Cha = N[C@@H](CC1CCCCC1)C(=O)O; S8 = C=CCCCCCC[C@](C)(N)C(=O)O; R5 = C=CCCC[C@@](C)(N)C(=O)O; hSer = N[C@@H](CCO)C(=O)O
Legend:
B-cat-Halo [1] = target: T1, B-cat-Halo (UniProt P35222 1-781); assay: cell-based or functional assay
T1 sequence (looked up): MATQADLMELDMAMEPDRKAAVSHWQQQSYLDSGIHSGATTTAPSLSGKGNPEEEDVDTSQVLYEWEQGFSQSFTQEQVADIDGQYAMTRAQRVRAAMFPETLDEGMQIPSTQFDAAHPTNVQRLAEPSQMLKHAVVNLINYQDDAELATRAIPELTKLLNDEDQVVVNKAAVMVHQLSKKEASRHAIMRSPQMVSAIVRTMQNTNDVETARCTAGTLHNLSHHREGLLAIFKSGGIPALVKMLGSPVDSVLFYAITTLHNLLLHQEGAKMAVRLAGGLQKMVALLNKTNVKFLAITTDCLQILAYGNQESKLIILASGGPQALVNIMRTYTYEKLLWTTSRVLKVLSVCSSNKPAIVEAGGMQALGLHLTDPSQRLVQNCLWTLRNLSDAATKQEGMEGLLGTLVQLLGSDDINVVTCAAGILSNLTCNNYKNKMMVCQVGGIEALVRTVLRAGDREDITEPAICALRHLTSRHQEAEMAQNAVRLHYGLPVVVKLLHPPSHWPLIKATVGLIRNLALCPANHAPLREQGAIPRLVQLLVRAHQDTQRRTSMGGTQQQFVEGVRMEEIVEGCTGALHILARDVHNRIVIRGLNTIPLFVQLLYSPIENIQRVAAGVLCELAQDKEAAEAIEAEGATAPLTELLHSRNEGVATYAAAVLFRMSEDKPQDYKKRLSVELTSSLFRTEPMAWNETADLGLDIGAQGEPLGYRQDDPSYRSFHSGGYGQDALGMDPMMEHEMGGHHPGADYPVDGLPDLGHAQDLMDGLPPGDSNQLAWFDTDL

B-cat-Halo [2] = target: T2, B-cat-Halo (UniProt P35222 1-781); assay: cell-based or functional assay; remark: listed apart in the source
T2 sequence (looked up): T1 sequence (looked up)

[3] = target: T3, B-cat-Halo (beta-catenin HaloTag construct expressed in HEK293 cells) (UniProt P35222 1-781); assay: cell-based or functional assay
T3 sequence (looked up): T1 sequence (looked up)

[4] = target: T4, full-length beta-Catenin (Uniprot ID P35222) (Homo sapiens (Human), UniProt P35222 1-781); assay: FP competition: full-length beta-catenin 10 nM + 5FAM-TCF4(10-53) 10 nM
T4 construct: also called bCat; B-Catenin
T4 sequence: T1 sequence (looked up)
Protocol: The plate was incubated protected from light for 60 minutes at 20° C. prior to read. Reads were performed on a CLARIOstar plate reader (BMG Labtech) in duplicate, and data were fitted to a 1:1 binding model with hill slope using an in-house script. All provided concentrations are final concentrations.

NanoBRET Abs IC50 (B-cat-Halo [1]): 5.2 µM
B1: I-1613 (peptide)
peptide: Ac-[αAllylPro]D[tBuAla][B5(3)]D[TfeGA]AAFT[PyrS2″][Phe(2-Cl)][Bta][MorphAsn]-NH2
modifications: staple 1-4, 4-11

NanoBRET Abs IC50 (B-cat-Halo [1]): 4.1 µM
B2: I-1610 (peptide)
peptide: Ac-[αAllylPro]D[tBuAla][B5(3)]D[Phe(3-COOH)]AAFL[PyrS2][2F3MeF][Bta][Nva(5-morpholino)]-NH2
modifications: staple 1-4, 4-11

NanoBRET Abs IC50 (B-cat-Halo [2]): > 20 µM
B3: I-1132 (peptide)
peptide: Ac-[αAllylPro]D[tBuAla][B5(24)]DDA[Lys(iPr)]FN[PyrS2″][Phe(2-Cl)][Bta]Q-NH2
modifications: staple 1-4, 4-11

NanoBRET Abs IC50 (B-cat-Halo [1]): 11.9 µM
B4: I-1607 (peptide)
peptide: Ac-[αAllylPro]D[tBuAla][B5(4)]D[TfeGA]AAFT[PyrS2][Phe(2-Cl)][Bta][F2PipNva]-NH2
modifications: staple 1-4, 4-11

NanoBRET Abs IC50 [3]: 26.9 µM
B5: I-1185 (peptide)
peptide: Ac-[αAllylPro]D[tBuAla][B5″]DDAAFL[PyrS2(3)][Phe(F5)][Bta]Q-NH2
modifications: staple 1-4, 4-11

NanoBRET Abs IC50 (B-cat-Halo [1]): 6.7 µM
B6: I-1609 (peptide)
peptide: Ac-[αAllylPro]D[tBuAla][B5(3)]D[TfeGA]AAFT[PyrS2][Phe(2-Cl)][Bta][Nva(5-morpholino)]-NH2
modifications: staple 1-4, 4-11

NanoBRET Abs IC50 (B-cat-Halo [1]): 6.4 µM
B7: I-1614 (peptide)
peptide: Ac-[αAllylPro]D[tBuAla][B5(3)]D[Phe(3-COOH)]AAFL[PyrS2″][2F3MeF][Bta][MorphAsn]-NH2
modifications: staple 1-4, 4-11

NanoBRET Abs IC50 (B-cat-Halo [2]): 12 µM
B8: I-1137 (peptide)
peptide: Ac-[αAllylPro]D[Cha][B5(24)]DDAAFS[PyrS2″][Phe(2-Cl)][Bta][hSer]-NH2
modifications: staple 1-4, 4-11

NanoBRET Abs IC50 [3]: 28.6 µM
B9: I-1187 (peptide)
peptide: Ac-[αAllylPro]D[Cha][B5″]DDAAFT[PyrS2(3)][Phe(F5)][Bta]S-NH2
modifications: staple 1-4, 4-11

NanoBRET Abs IC50 [3]: > 20 µM
B10: I-1181 (peptide)
peptide: Ac-PD[tBuAla][R5]DDAAFL[PyrS2(3)][3Thi][Bta]Q-NH2
modifications: staple 4-11

NanoBRET Abs IC50 (B-cat-Halo [2]): 7.6 µM
B11: I-1130 (peptide)
peptide: Ac-[αAllylPro]D[tBuAla][B5(24)]DDAAFN[PyrS2″][Phe(2-Cl)][Bta][Lys(iPr)]-NH2
modifications: staple 1-4, 4-11

NanoBRET Abs IC50 (B-cat-Halo [2]): > 20 µM
B12: I-1125 (peptide)
peptide: Ac-[αAllylPro]D[Cha][B5(3)]DDAA[Phe(3-CF3)]S[PyrS2″]F[Bta]Q-NH2
modifications: staple 1-4, 4-11

NanoBRET Abs IC50 (B-cat-Halo [2]): 18 µM
B13: I-1139 (peptide)
peptide: Ac-[αAllylPro]D[Cha][B5(24)]DDAAFL[PyrS2″][Phe(2-Cl)][Bta]T-NH2
modifications: staple 1-4, 4-11

IC50 [4]: 0.192 µM
B14: I-507 (peptide)
peptide: XDAXDEAAFQXFXT
modifications: not fully specified; Ac-PL3-Asp-Ala-B5-Asp-Glu-Ala-Ala-Phe-Gln-S8-Phe-BztA-Thr-NH2; stapled by olefin metathesis (PL3-B5 and B5-S8)

IC50 [4]: 0.063 µM
B15: I-528 (peptide)
peptide: XDIXDEAAFQXFXQ
modifications: not fully specified; Ac-PL3-Asp-Ile-B5-Asp-Glu-Ala-Ala-Phe-Gln-S8-2OMeF-BztA-Gln-NH2; stapled by olefin metathesis (PL3-B5 and B5-S8)

IC50 [4]: 0.098 µM
B16: I-527 (peptide)
peptide: XDIXDEAAFQXFXQ
modifications: not fully specified; Ac-PL3-Asp-Ile-B5-Asp-Glu-Ala-Ala-Phe-Gln-S8-2OMeF-BztA-Gln-NH2; stapled by olefin metathesis (PL3-B5 and B5-S8)

IC50 [4]: 0.073 µM
B17: I-508 (peptide)
peptide: Ac-[αAllylPro]DA[B5(20)]DEAAFQ[S8]F[Bta]T-NH2
modifications: staple 1-4, 4-11; also: later-eluting HPLC peak of staple isomers

From US20240116985A1 (published 2024)
